The record followed here is patent publication US20160311918A1, “Anti-Ron Monoclonal Antibodies as a Cytotoxic Drug Delivery System for Targeted Cancer Therapy” (TEXAS TECH UNIVERSITY SYSTEM, priority 2013, published 2016).

This assay concerns the target cell surface RON (Homo sapiens, UniProt Q04912). As to the kind of experiment: Kinetic reduction of cell surface RON (endocytosis) in CRC cells. In kind it is cell-based. Further details: We selected CRC cell lines HT29, HCT116, and SW620 expressing variable levels of RON as the cellular model; host or cells: HCT116, HT29, SW620. Particulars: for time required to induce 50% RON reduction (internalization efficacy): 37° C. The procedure:
FIGS. 2A to 2F show the binding and induction of RON endocytosis by Zt/g4-DM1 in CRC cells. FIG. 2A: Levels of RON expression by different CRC cell lines: Five CRC cells lines (1×10^6 cells/ml) in PBS were incubated at 4° C. with 5 μg/ml Zt/g4 for 60 min. […] matched mouse IgG was used as the control. Cell surface RON was quantitatively determined by the immunofluorescence assay using QIFKIT® reagents from DAKO (Carpentaria, Calif.) as detailed in Materials and Methods. FIG. 2B: Binding of Zt/g4-DM1 to human CRC cell lines: HCT116, HT29, and SW620 cells (1×10^5 cells) were incubated with 5 μg Zt/g4-DM1 or Zt/c1-DM1. Free Zt/g4 and Zt/c1 was used as the control. Fluorescence intensity from individual samples was determined by flow cytometric analysis. FIG. 2C: Kinetic reduction of cell surface RON: HCT116, HT29, and SW620 cells (1×10^6 cells per dish) were treated at 37° C. with 5 μg/ml of Zt/g4-DM1, collected at different time points, washed with acidic buffer to eliminate cell surface bound IgG, and then incubated with 1 μg/mL of anti-RON mAb 2F2 Immunofluorescence was analyzed by flow cytometer using FITC-coupled anti-mouse IgG Immunofluorescence from cells treated with Zt/g4-DM1 or Zt/c1-DM1 at 4° C. was set as 100%. Internalization efficiency was calculated as the time required to achieve 50% cell surface RON reduction. FIG. 2D: RON reduction analysis by Western blotting: Cellular proteins (50 μg per lane) from cells treated with 5 μg/ml of Zt/g4 or Zt/g4-DM1 for various times were separated in an 8% SDS-PAGE under reduced conditions and transferred to the membrane. RON was detected by rabbit anti-RON antibody followed enhanced chemiluminescent reagents. The same membrane was reprobed for actin as the loading control. FIG. 2E: Quantitative measurement of RON expression: The intensity of individual RON-β chains was determined by densitometric analysis. Internalization efficiency was calculated as the time required to achieve a 50% RON reduction. FIG. 2F: Immunofluorescent localization of cytoplasmic RON: HT29 cells (1×10^5 cells per chamber) were treated at 4° C. or 37° C. with 5 μg/ml of Zt/g4-DM1 or Zt/c1-DM1 for 6 h followed by FITC-coupled anti-mouse IgG. After cell fixation, immunofluorescence was detected using the BK70 Olympus microscope equipped with a fluorescence apparatus. LAMP1 was used as a marker for protein cytoplasmic localization. DAPI was used to stain nuclear DNA;
Zt/g4-DM1-induced RON endocytosis was studied, which is a process essential for delivering DM1 into CRC cells. Zt/g4-DM1 causes a progressive reduction of cell surface RON in a time-dependent manner in all three CRC cell lines tested (FIG. 2C). Less than 20% of RON remained on the cell surface after a 48 hour treatment. […] Thus, Zt/g4-DM1 is more efficient and potent in induction of RON endocytosis.

Sequence of cell surface RON (Q04912 310-1400 limits assumed): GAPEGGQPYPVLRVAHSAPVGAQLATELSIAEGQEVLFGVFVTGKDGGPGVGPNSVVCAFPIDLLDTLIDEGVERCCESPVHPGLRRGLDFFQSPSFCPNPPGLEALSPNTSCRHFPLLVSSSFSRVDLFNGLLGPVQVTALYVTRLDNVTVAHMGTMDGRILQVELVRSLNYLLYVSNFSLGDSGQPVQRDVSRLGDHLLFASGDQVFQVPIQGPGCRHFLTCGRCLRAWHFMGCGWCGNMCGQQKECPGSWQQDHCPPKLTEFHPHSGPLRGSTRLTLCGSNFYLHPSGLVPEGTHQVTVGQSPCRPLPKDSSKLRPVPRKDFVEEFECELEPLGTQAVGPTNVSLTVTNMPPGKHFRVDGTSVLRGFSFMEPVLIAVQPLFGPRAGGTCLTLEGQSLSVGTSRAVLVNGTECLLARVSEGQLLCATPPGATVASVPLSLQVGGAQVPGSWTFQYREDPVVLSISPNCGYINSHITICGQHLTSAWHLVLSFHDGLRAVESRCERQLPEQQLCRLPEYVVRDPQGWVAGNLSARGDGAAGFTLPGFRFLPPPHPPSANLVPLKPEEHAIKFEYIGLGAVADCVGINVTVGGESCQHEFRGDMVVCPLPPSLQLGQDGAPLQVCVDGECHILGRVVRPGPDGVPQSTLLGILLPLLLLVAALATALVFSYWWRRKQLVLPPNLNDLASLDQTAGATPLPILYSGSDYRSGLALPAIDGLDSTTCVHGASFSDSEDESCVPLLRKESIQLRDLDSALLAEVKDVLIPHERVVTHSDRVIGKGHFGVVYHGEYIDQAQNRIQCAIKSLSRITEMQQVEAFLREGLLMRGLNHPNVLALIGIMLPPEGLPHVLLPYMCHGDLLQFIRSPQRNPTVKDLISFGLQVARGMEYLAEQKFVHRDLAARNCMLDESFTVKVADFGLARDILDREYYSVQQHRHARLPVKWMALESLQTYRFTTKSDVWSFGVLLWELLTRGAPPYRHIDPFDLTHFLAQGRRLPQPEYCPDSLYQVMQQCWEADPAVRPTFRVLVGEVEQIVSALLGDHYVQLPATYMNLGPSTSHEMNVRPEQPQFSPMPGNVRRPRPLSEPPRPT
Sequence of cell surface RON (Q04912 25-304 limits assumed): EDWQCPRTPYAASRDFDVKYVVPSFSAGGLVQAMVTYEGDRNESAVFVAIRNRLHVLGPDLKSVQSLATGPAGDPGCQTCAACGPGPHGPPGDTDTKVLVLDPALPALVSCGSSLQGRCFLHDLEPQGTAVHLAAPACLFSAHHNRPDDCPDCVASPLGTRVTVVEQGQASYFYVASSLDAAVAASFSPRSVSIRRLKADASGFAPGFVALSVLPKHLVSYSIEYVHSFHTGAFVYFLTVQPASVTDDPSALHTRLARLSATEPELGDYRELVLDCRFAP

B1: Zt/g4-DM1: anti-RON mouse mAb Zt/g4 conjugated to maytansinoid DM1 via non-reducible thioether linkage (SMCC), DAR about 4:1 (conjugate)
VH: EVQLQQSGAELVKPGASVKLSCTTSGFNIIDTYIHWVNQKPDQGLEWIGRIDPADGNRKSDPKFQVKATITVDTSSNTAYLQLSSLTSGDTAVYYCARGYGNLNAMDSWGQGTSVTVSS
VL: DIQMNQSPSSLSASLGDTITITCHASQNINVWLNWYQQKPGNIPKLLIYKASNLHTGVPSRFSGSGSGTGFTLTISSLQPEDIATYYCQQGQSYPLTFGGGTKLEIK
In the case of B1, the “time required to induce 50% RON reduction (internalization efficacy)” value (HCT116, 5 μg/ml) was 12.26 h; the “time required to induce 50% RON reduction (internalization efficacy)” value (HT29, 5 μg/ml) turned out to be 11.02 h; the “time required to induce 50% RON reduction (internalization efficacy)” value (SW620, 5 μg/ml) is 12.30 h. Further, the “RON remaining on the cell surface” value (after 48 hour treatment, 5 μg/ml, three CRC cell lines) is reported as “Less than 20%”. For the same molecule, the “cell surface RON internalized” value (within 48 h) is on record as greater than 80%.
